Where a chain is given by its changes, count along the chain named. Names may count otherwise. Values belong to the binder of their own block, whether it stands above or below them.
Key:
[1] = biological target: T1, mouse CD47 (mouse, UniProt Q61735 19-303); experiment: cell-based ELISA on mouse 4T1 cells, apparent Kd
T1 construct: whole, on cells; also called CD47 on mouse RBCs; CD47 on 4T1 cells
T1 sequence (looked up): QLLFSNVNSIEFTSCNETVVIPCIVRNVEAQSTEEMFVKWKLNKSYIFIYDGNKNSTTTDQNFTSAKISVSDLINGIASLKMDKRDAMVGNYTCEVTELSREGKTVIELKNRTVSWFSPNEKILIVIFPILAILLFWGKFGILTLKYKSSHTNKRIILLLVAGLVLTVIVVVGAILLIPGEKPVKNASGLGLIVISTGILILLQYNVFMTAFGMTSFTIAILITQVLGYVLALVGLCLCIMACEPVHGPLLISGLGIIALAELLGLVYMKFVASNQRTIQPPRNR
Method: (§1) OV10 cells are grown in IMDM medium containing 10% heat inactivated fetal bovine serum (BioWest; S01520) and 4T1 cells are grown in RMPI medium containing 10% heat inactivated fetal bovine serum (BioWest; S01520). One day before assay, 3×10⁴ cells are plated in 96 well cell bind plates (Corning #3300, VWR #66025-626) so that they are 95-100% confluent at the time of assay. Cells are washed and various concentrations of purified antibodies added in either IMDM or RPMI at 37° C. for 1 hour in […]. Cells are then washed with media and incubated for an additional hour at 37° C. with HRP labeled secondary anti-human antibody (Promega) diluted 1/2500 in media. Cells are washed three times with PBS, and the peroxidase substrate 3,3′,5,5′-tetramethylbenzidine is added (Sigma; Catalog #T4444). Reactions are terminated by the addition of HCl to 0.7N, and absorbance at 450 nm is determined using a Tecan model Infinite M200 plate reader. The apparent binding affinities of these clones to human and mouse cells is determined by non-linear fits (Prism GraphPad software). […] Agglutination of human RBCs is assessed following incubation of human RBCs with various concentrations of humanized blocking only clones. Blood is diluted (1:50) and washed 3 times with PBS/EDTA/BSA. RBCs are added to U-bottomed 96 well plates with equal volumes of the antibodies (75 μl) and incubated for 3 hrs at 37° C. and overnight at 4° C.

[2] = biological target: T2, human CD47 (human, UniProt Q08722 19-323); experiment: cell-based ELISA on human OV10 cells, apparent Kd
T2 construct: whole, on cells; also called CD47 on human RBCs; CD47 on OV10 cells
Method: as §1

[3] = biological target: T3, rat CD47 (rat, UniProt P97829 19-303); experiment: flow cytometry on RBCs, CHO supernatant 10 ng/ml
T3 construct: whole, on cells; also called CD47 on rat RBCs
T3 sequence (looked up): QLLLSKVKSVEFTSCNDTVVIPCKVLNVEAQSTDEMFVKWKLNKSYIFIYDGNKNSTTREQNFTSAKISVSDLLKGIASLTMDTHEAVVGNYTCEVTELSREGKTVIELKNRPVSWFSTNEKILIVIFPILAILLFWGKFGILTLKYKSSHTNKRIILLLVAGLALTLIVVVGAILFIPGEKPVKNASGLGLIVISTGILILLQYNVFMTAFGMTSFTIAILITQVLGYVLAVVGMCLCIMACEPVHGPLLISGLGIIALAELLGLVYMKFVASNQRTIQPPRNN
Method: (§2) RBCs are incubated for 60 minutes on ice with tissue culture supernatants containing the secreted humanized antibodies at a concentration of 10 ng/ml in a solution of phosphate buffered saline, pH 7.2, 2.5 mM EDTA (PBS+E), or with various concentrations of purified antibodies. Cells are then washed with cold PBS+E, and incubated for an additional hour on ice with FITC labeled donkey anti-human antibody (Jackson Immuno Research Labs, West Grove, Pa.; Catalogue #709-096-149) in PBS+E. Cells are then washed with PBS+E, and antibody binding is analyzed using a BD FACSAria Cell Sorter (Becton Dickinson) or a C6 Accuri Flow Cytometer (Becton Dickinson). Antibody binding is quantitated by comparison of mean fluorescence values relative to that of chimeric antibody >VxP037-01LC (SEQ ID NO:7))/>VxPO37-01HC (SEQ ID NO:57). The mean fluorescence value for each antibody is divided by the mean fluorescence value for the chimeric antibody.

[4] = biological target: T2, human CD47; experiment: flow cytometry on RBCs, CHO supernatant 10 ng/ml
Method: as §2

[5] = biological target: T4, pig CD47 (pig, UniProt Q9GKE8 19-303); experiment: flow cytometry on RBCs, CHO supernatant 10 ng/ml
T4 construct: whole, on cells; also called CD47 on porcine RBCs
T4 sequence (looked up): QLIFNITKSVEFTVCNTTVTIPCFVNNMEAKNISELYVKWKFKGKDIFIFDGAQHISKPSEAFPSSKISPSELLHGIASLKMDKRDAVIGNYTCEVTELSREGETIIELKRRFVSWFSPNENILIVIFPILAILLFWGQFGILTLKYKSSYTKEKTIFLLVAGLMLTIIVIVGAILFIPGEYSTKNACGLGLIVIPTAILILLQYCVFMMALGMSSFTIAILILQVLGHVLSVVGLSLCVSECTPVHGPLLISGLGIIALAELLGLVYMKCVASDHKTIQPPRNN
Method: as §2

[6] = biological target: T1, mouse CD47; experiment: flow cytometry on RBCs, CHO supernatant 10 ng/ml
Method: as §2

[7] = biological target: T5, dog CD47 (dog, UniProt A0A8I3PM61 19-310); experiment: flow cytometry on RBCs, CHO supernatant 10 ng/ml
T5 construct: also called CD47 on dog RBCs
T5 sequence: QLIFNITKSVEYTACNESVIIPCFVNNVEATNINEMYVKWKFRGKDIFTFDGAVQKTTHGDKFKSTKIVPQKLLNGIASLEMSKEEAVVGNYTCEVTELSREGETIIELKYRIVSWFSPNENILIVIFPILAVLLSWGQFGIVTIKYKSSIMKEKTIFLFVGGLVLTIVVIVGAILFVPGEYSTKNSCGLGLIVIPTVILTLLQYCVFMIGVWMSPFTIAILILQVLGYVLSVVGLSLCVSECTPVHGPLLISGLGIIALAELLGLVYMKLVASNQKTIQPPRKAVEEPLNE
Method: as §2

T2 sequence (Q08722 19-323): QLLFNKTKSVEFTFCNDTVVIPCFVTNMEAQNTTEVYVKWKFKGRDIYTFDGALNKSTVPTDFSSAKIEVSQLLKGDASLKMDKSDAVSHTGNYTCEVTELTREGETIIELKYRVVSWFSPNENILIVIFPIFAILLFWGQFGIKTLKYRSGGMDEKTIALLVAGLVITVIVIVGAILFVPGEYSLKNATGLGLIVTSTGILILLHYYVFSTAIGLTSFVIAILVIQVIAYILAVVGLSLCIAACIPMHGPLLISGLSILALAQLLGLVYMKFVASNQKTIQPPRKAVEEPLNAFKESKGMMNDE

Kd [1]: 0.198 nM | Kd [2]: 0.0855 nM
B1: Clone 17.1 (hum17 IgG1 N297Q) (antibody)
heavy: EVQLVQSGAEVKKPGATVKISCKVSGYTFTNYYVFWIRQPPGKGLEWIGDINPVNGDTNFNEKFKNRVTITADKSTSTAYMELSSLRSEDTAVYYCARGGYTMDYWGQGTLVTVSSASTKGPSVFPLAPSSKSTSGGTAALGCLVKDYFPEPVTVSWNSGALTSGVHTFPAVLQSSGLYSLSSVVTVPSSSLGTQTYICNVNHKPSNTKVDKKVEPKSCDKTHTCPPCPAPELLGGPSVFLFPPKPKDTLMISRTPEVTCVVVDVSHEDPEVKFNWYVDGVEVHNAKTKPREEQYQSTYRVVSVLTVLHQDWLNGKEYKCKVSNKALPAPIEKTISKAKGQPREPQVYTLPPSR
light: AIQLTQSPSSLSASVGDRVTITCRSSQSLVHSNGNTYLHWYQQKPGQAPRLLIYKVSYRFSGVPDRFSGSGSGTDFTLKISRVEAEDVGVYYCSQNTHVPRTFGQGTKVEIKRTVAAPSVFIFPPSDEQLKSGTASVVCLLNNFYPREAKVQWKVDNALQSGNSQESVTEQDSKDSTYSLSSTLTLSKADYEKHKVYACEVTHQGLSSPVTKSFNRGEC
notes: IgG1 N297Q

Kd [1]: 0.0949 nM | Kd [2]: 0.0962 nM
B2: Clone 14.1 (hum14 IgG1 N297Q) (antibody)
heavy: QVQLQESGPGLVKPSQTLSLTCTVSGYTFTNYYVFWVRQARGQRLEWIGDINPVNGDTNFNEKFKNRVTISADKSISTAYLQWSSLKASDTAMYYCARGGYTMDYWGQGTLVTVSSASTKGPSVFPLAPSSKSTSGGTAALGCLVKDYFPEPVTVSWNSGALTSGVHTFPAVLQSSGLYSLSSVVTVPSSSLGTQTYICNVNHKPSNTKVDKKVEPKSCDKTHTCPPCPAPELLGGPSVFLFPPKPKDTLMISRTPEVTCVVVDVSHEDPEVKFNWYVDGVEVHNAKTKPREEQYQSTYRVVSVLTVLHQDWLNGKEYKCKVSNKALPAPIEKTISKAKGQPREPQVYTLPPSR
light: DVVMTQSPLSLPVTLGQPASISCRSSQSLVHSNGNTYLHWYQQKPGKAPKLLIYKVSYRFSGVPDRFSGSGSGTDFTLKISRVEAEDVGVYYCSQNTHVPRTFGQGTKVEIKRTVAAPSVFIFPPSDEQLKSGTASVVCLLNNFYPREAKVQWKVDNALQSGNSQESVTEQDSKDSTYSLSSTLTLSKADYEKHKVYACEVTHQGLSSPVTKSFNRGEC
notes: IgG1 N297Q

Kd [1]: 0.205 nM | Kd [2]: 0.115 nM
B3: Clone 8.1 (hum08 IgG1 N297Q) (antibody)
heavy: QITLKESGPTLVKPTQTLTLTCTFSGYTFTNYYVFWIRQSPSRGLEWLGDINPVNGDTNFNEKFKNRFTISRDNAKNSLYLQMNSLRAEDTAVYYCARGGYTMDYWGQGTLVTVSSASTKGPSVFPLAPSSKSTSGGTAALGCLVKDYFPEPVTVSWNSGALTSGVHTFPAVLQSSGLYSLSSVVTVPSSSLGTQTYICNVNHKPSNTKVDKKVEPKSCDKTHTCPPCPAPELLGGPSVFLFPPKPKDTLMISRTPEVTCVVVDVSHEDPEVKFNWYVDGVEVHNAKTKPREEQYQSTYRVVSVLTVLHQDWLNGKEYKCKVSNKALPAPIEKTISKAKGQPREPQVYTLPPSR
light: B2 light with V2I, S7T, L15P, Q17E
notes: IgG1 N297Q

Kd [1]: 0.0949 nM | Kd [2]: 0.121 nM
B4: Clone 8.2 (hum08 IgG4 S228P L235E) (antibody)
heavy: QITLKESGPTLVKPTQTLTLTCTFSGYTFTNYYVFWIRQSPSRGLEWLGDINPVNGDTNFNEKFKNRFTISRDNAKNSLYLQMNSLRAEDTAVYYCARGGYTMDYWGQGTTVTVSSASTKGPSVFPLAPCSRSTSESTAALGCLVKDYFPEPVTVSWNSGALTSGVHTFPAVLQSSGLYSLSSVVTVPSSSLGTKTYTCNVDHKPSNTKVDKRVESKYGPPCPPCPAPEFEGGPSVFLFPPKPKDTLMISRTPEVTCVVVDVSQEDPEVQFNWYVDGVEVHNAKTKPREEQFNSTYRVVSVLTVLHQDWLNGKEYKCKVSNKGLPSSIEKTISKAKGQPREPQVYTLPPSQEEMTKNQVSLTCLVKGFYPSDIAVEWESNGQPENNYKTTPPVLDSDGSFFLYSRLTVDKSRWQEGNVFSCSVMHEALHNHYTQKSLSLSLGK
light: B2 light with V2I, S7T, L15P, Q17E
notes: IgG4 S228P L235E

Kd [1]: 0.172 nM | Kd [2]: 0.107 nM
B5: Clone 5.2 (hum05 IgG4 S228P L235E) (antibody)
heavy: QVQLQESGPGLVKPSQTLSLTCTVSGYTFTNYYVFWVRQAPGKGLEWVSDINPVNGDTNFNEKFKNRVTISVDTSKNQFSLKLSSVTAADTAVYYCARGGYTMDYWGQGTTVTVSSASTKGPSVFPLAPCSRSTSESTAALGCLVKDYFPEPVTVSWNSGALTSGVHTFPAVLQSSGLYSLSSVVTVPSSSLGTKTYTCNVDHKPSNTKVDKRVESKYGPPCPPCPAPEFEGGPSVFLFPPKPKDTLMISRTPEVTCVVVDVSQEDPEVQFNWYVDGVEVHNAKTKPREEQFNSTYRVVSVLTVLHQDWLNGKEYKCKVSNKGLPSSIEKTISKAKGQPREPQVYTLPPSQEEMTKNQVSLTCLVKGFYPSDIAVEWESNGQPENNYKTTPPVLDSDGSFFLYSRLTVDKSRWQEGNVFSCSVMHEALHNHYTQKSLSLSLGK
light: B2 light with V2I, S7T, L15P, Q17E, Q42L, K47Q, A48S, K50Q
notes: IgG4 S228P L235E

Kd [1]: 0.175 nM | Kd [2]: 0.15 nM
B6: Clone 1.2 (hum01 IgG4 S228P L235E) (antibody)
heavy: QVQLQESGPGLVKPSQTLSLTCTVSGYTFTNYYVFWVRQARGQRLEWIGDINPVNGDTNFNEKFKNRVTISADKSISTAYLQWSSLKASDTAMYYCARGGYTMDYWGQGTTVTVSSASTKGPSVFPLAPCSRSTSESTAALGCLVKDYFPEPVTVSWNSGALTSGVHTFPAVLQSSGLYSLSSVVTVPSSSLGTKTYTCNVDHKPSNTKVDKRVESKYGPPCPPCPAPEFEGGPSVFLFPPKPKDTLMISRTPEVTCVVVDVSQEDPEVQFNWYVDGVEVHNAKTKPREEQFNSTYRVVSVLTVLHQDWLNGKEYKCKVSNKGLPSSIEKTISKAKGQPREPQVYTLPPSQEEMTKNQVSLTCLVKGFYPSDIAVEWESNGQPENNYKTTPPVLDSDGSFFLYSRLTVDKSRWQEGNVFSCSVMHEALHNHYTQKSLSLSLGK
light: B2 light with V2I, S7T, L15P, Q17E
notes: IgG4 S228P L235E version of Clone 1; also called pVxK7b-037-hum01-HC-IgG4 S228P L235E-Pro

Kd [1]: 0.112 nM | Kd [2]: 0.125 nM
B7: Clone 5.1 (hum05 IgG1 N297Q) (antibody)
heavy: QVQLQESGPGLVKPSQTLSLTCTVSGYTFTNYYVFWVRQAPGKGLEWVSDINPVNGDTNFNEKFKNRVTISVDTSKNQFSLKLSSVTAADTAVYYCARGGYTMDYWGQGTLVTVSSASTKGPSVFPLAPSSKSTSGGTAALGCLVKDYFPEPVTVSWNSGALTSGVHTFPAVLQSSGLYSLSSVVTVPSSSLGTQTYICNVNHKPSNTKVDKKVEPKSCDKTHTCPPCPAPELLGGPSVFLFPPKPKDTLMISRTPEVTCVVVDVSHEDPEVKFNWYVDGVEVHNAKTKPREEQYQSTYRVVSVLTVLHQDWLNGKEYKCKVSNKALPAPIEKTISKAKGQPREPQVYTLPPSR
light: B2 light with V2I, S7T, L15P, Q17E, Q42L, K47Q, A48S, K50Q
notes: IgG1 N297Q

Kd [1]: 0.178 nM | Kd [2]: 0.108 nM
B8: Clone 13.2 (hum 13 IgG4 S228P L235E) (antibody)
heavy: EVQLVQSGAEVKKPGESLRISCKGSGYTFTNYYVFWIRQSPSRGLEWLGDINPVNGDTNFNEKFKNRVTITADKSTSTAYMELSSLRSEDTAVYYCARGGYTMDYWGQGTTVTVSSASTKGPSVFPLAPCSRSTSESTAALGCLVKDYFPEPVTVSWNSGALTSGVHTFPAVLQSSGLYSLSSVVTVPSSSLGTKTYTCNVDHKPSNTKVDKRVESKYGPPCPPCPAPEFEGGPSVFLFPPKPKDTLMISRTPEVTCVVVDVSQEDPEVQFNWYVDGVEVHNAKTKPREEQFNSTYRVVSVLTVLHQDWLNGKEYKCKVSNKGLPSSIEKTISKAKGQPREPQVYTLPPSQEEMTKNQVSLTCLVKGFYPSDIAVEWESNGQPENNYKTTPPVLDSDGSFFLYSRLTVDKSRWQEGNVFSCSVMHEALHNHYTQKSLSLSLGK
light: B2 light with V2I, S7T, L15P, Q17E
notes: IgG4 S228P L235E version of Clone 13

Kd [1]: 0.132 nM | Kd [2]: 0.115 nM
B9: Clone 3.1 (hum03 IgG1 N297Q) (antibody)
heavy: B1 heavy with A16E, T17S, V18L, K19R, V24G, I37V, P40A, P41R, K43Q, G44R
light: B2 light
notes: IgG1 N297Q

Kd [1]: 0.202 nM | Kd [2]: 0.129 nM
B10: Clone 3.2 (hum03 IgG4 S228P L235E) (antibody)
heavy: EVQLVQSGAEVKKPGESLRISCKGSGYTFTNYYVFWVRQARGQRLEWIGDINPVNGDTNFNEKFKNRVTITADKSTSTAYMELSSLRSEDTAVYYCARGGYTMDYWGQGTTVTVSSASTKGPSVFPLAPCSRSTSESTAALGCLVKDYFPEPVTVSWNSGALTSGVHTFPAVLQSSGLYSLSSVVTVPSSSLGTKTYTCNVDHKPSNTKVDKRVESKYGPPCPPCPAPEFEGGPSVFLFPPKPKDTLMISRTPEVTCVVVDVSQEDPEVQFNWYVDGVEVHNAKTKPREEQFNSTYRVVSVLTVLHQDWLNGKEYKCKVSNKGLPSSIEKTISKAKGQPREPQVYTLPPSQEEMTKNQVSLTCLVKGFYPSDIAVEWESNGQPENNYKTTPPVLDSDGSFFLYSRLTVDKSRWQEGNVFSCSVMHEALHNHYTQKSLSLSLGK
light: B2 light
notes: IgG4 S228P L235E

Kd [1]: 0.102 nM | Kd [2]: 0.0899 nM
B11: Clone 14.2 (hum14 IgG4 S228P L235E) (antibody)
heavy: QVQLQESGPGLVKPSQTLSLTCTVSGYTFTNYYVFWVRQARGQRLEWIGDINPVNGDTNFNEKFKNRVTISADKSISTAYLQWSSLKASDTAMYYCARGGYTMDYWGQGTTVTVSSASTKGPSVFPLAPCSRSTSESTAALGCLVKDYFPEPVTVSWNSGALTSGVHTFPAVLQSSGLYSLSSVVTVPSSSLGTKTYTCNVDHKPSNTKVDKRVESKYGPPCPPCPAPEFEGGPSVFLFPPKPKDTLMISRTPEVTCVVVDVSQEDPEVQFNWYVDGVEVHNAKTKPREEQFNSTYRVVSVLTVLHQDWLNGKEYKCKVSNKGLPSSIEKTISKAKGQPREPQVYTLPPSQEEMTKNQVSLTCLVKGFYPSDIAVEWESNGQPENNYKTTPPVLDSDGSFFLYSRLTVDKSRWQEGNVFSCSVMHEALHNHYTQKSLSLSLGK
light: B2 light
notes: IgG4 S228P L235E

mean fluorescence relative to chimeric antibody [3]: 2.2 ratio | mean fluorescence relative to chimeric antibody [4]: 1 ratio | mean fluorescence relative to chimeric antibody [5]: 1.2 ratio | mean fluorescence relative to chimeric antibody [6]: 1.3 ratio | mean fluorescence relative to chimeric antibody [7]: 1.5 ratio
B12: Clone 18 (pVxK7b-037-hum18-LC / pVxK7b-037-hum18-HC) (antibody, human IgG1, kappa, V domains shown)
VH: EVQLVQSGAEVKKPGESLRISCKGSGYTFTNYYVFWIRQSPSRGLEWLGDINPVNGDTNFNEKFKNRVTITADKSTSTAYMELSSLRSEDTAVYYCARGGYTMDYWGQGTLVTVSS
VL: EIVLTQSPATLSVSPGERATLSCRSSQSLVHSNGNTYLHWYQQKPGQAPRLLIYKVSYRFSGVPSRFSGSGSGTDFTFTISSLEAEDAATYYCSQNTHVPRTFGQGTKVEIKR

— patent US20150274826A1 (ARCH ONCOLOGY, published 2015)
